Molecular target: HLA-A2 (recombinant, on Raji-HLA-A2 target cells) (human)
Test: cell-based or functional assay

B1: HLA-A2 iCAR (inhibitory chimeric antigen receptor; HLA-A2 scFv from hybridoma BB7.2 fused to PD-1 hinge, transmembrane and intracellular domains) (receptor)
chain: EQKLISEEDLQVQLQQSGPELVKPGASVKMSCKASGYTFTSYHIQWVKQRPGQGLEWIGWIYPGDGSTQYNEKFKGKTTLTADKSSSTAYMLLSSLTSEDSAIYFCAREGTYYAMDYWGQGTSVTVSSGGGGSGGGGSGGGGSDVLMTQTPLSLPVSLGDQVSISCRSSQSIVHSNGNTYLEWYLQKPGQSPKLLIYKVSNRFSGVPDRFSGSGSGTDFTLKISRVEAEDLGVYYCFQGSHVPRTFGGGTKLEIKTERRAEVPTAHPSPSPRPAGQFQTLVVGVVGGLLGSLVLLVWVLAVICSRAARGTIGARRTGQPLKEDPSAVPVFSVDYGELDFQWREKTPEPPVPCVPEQTEYATIVFPSGMGTSSPARRGSADGPRSAQPLRPEDGHCSWPL
- inhibition of effector T cells expressing the two CARs at a 1:1 ratio (CD107a figure series): 50%
- percent inhibition of CD107a expression on CD8 T cells; 100*(1-(CD107a with Raji-A2/CD107a with Raji)), aCAR to iCAR ratio 1:5: 84%

Source: US20200316120A1 (IMMPACT BIO, published 2020)
